Experimental data: article PMC9779362, “The J Domain of Sacsin Disrupts Intermediate Filament Assembly” (International Journal of Molecular Sciences, 2022)

Molecular target: the molecule itself
Test: negative-stain transmission electron microscopy of in vitro assembly; purified NFL (0.24 µg/µL) dialysed stepwise out of urea into assembly buffer, overnight at 4 °C; 2% uranyl acetate

B1: recombinant human NFL (neurofilament light chain) (natural protein, UniProt P07196 1-543, looked up)
chain: MSSFSYEPYYSTSYKRRYVETPRVHISSVRSGYSTARSAYSSYSAPVSSSLSVRRSYSSSSGSLMPSLENLDLSQVAAISNDLKSIRTQEKAQLQDLNDRFASFIERVHELEQQNKVLEAELLVLRQKHSEPSRFRALYEQEIRDLRLAAEDATNEKQALQGEREGLEETLRNLQARYEEEVLSREDAEGRLMEARKGADEAALARAELEKRIDSLMDEISFLKKVHEEEIAELQAQIQYAQISVEMDVTKPDLSAALKDIRAQYEKLAAKNMQNAEEWFKSRFTVLTESAAKNTDAVRAAKDEVSESRRLLKAKTLEIEACRGMNEALEKQLQELEDKQNADISAMQDTINKLENELRTTKSEMARYLKEYQDLLNVKMALDIEIAAYRKLLEGEETRLSFTSVGSITSGYSQSSQVFGRSAYGGLQTSSYLMSTRSFPSYYTSHVQEEQIEVEETIEAAKAEEAKDEPPSEGEAEEEEKDKEEAEEEEAAEEEEAAKEESEEAKEEEEGGEGEEGEETKEAEEEEKKVEGAGEEQAAKKKD
notes: neurofilament light polypeptide (NFL), human, cloned into pET23b (gift of Dr. Walter Mushynski); Used as assembled filaments (TEM, sedimentation) and as the soluble fraction after centrifugation (pull-down); also called soluble recombinant NFL; source: bacteria (pET23b), inclusion bodies solubilised in 8 M urea, purified on hydroxyapatite, dialysed into assembly buffer
binding result: binds
